The values that follow come from a protein production outcome set (Wang et al. 2014).
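Note: failed if final PepcDB status was selected cloned or expressed and not failed if soluble or beyond.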

This series can be described thus: label from the status in PepcDB records.
On to “MVDYHYFKSKLNHFYGRYVGYNQRPVFFDIDQTFPELNHITRHFPDIKREFENVQANVKEFPRYHDIDPGESAISNTTEKNWNVFMLYLLGYQLKEARLLCPELCNLLEGIPHLIQAFFSILEPGKSIPLHEGPYIGYLRYHLGIHVPQNNPPQILVNNQTYTWKEGEAVLFDDSWPHEVRNTSDDYRAVLIIDVLRPMPFLPQLVNQFVTHVIARYFYGRKVMKRAMQYGGEVKPLALLEHHHHHH”, for which the protein production entry is reported as “failed”.

Turning to “MVETGHHHQHPPAPAAAGHPPVPSMAMARNMGTTWPPAEQLHHLQYCIHSNPSWHETVVLAFQHYIVMLGTTVLIANTLVSPMGGDPGDKARVIQTILFMSGINTLLQTLIGTRLPTVMGVSFAYVLPVLSIIRDYNNGQFDSEKQRFRHTMRTVQGSLIISSFVNIIIGYGQAWGNLIRIFSPIIVVPVVSVVSLGLFLRGFPLLANCVEIGLPMLILLIITQQYLKHAFSRISMILERYALLVCLAIIWAFAAILTVSGAYNNVSTATKQSCRTDRAFLMSSAPWIRIPYPFQWGTPIFKASHVFGMFGAAIVASAESTGVFFAASRLAGATAPPAHVVSRSIGLQGIGVLLEGIFGSITGNTASVENVGLLGLTRIGSRRVVQVSTFFMIFFSIFGKFGAFFASIPLPIFAGVYCILLGIVVAVGISFIQFTDTNSMRNMYVIGVSLFLSLSIAQYFLANTSRAGYGPVRTAGGWFNDILNTIFASAPLVATILATILDNTLEARHASDDARGIPWWKPFQHRNGDGRNDEFYSMPLRINELMPTRFL”, the protein production result is on record as “failed”.

For the sequence “MVETLGAIAPVFLIILVGFLLRRWKVLSDGFWLPAEKLTYFITFPALLAANLAGADLRGVAWAPVAAVSVGGIFLIAALMLAARSLLARRLAIGDPAFTSVFQGAIRPNTYIGLALATVLFGPFGVTLMALCIAIVVPLVNVLAVACMVRFGHGQSASLSAMARGIATNPLILACLVGIAMNIGGLGLPPVLGPALTILGSAALPIGLLAVGAGLSGVGLRRAAPALLVSSAAKLVLLPGLTLIGALALGMDAPTTALCVLYAALPCSQSSYVLARQMGGDATLMATAITVQTLLSGLSIPVFVLALV”, the protein production entry is reported as “failed”.

In the case of “MVEVTIWLAFFAGVVSFLSPCVFPLVPVYLAQLTGTQISGNEITADRKLILMRSLGFILGFTSIFIFLGASSTFIGQLFWGNRQLFEQIGGIIITVFGLQMMGVISIRMLLSEKRLQAKPRQSASFANSVLIGFLFATGWTPCIGLVLGAILVLAGDANTMWSGMSMLFVYSMGLAIPFFLVALLWSRSLHKVRKLNKWLPTIQKGSGVVMVALGVLLFTGQFSTIAAYLARINPFGI”, the protein production entry was “failed”.

On to “MVFGPGLCIAHRGTIVVNKGARVGENCRIHACTNIGSGRDNIFLAPKIGNGVYIGPGAKIFGSVEIADNIAIGANSVVNRSFYERGISIAGVPAKKISNKGSDGMVIAATKTVSVPVSQETILEHHHHHH”, for which the protein production result is “failed”.

In the case of “MVFLIVPILTILGLSIHEAIGTSLACIAISSFSSAYTHLKKGKVHIKVVILKELFSIPAAVLGAYLTNDINEKILRVAFSMLLFYLAVRLTVKRRAKDSKEAKIHYERVPLVGVASGFLSGLLGISGGILNVPLFTIFVGIPIKYSIGTSSLALFFTALAGAITHLKEGNVVLSIALALAPGLIVGAYVGAIVSHRIHSDKLRVLFSALLLIIGVRMLV”, the protein production entry is “failed”.

With “MVFSMHDKGETQENPADMSGRLNTPISTVFHFFSSLFHDALRSVAQWSAWKKIAVSVVIVAIISVTFLVDVPPISVYRDWANNAGDAFVLVFCAFYILITQFPIPRTVLTLASGVLFGPVLGSVVALGSTTVSAVISLLIVRGLLGDWMAPRLTHPAVSRINTRLEQRGWLAITSLRMIAAIPFSILNYVAALTSVPVFSFAIATLIGSAPGTIVTVVLGDAVTGSGNWTAVAFTVFLAILGVLGIFLDQKMPVKPGK”, the protein production entry is on record as “failed”.

In the case of “MVFSNSLLSSTTSLTTWANQSSSQSSLSPRYSTWQCVCLRNQKRKPKLYLIPARHFLSTPIDSVSSSSITASRYATSGVSEVQRSTSSNNVTEMEEFEMELQELFNEVKSMVKIGKESDAMDLLRANYVAVKEELDSGLKGIEQAAVLDIIALGYMAVGDLKPVPALLDMINKIVDNLKDSEPLLDSVLMHVGSMYSVIGKFENAILVHQRAIRILENRYGKCNTLLVTPLLGMAKSFASDGKATKAIGVYERTLTILERNRGSESEDLVVPLFSLGKLLLKEGKAAEAEIPFTSIVNIYKKIYGERDGRVGMAMCSLANAKCSKGDANEAVDIYRNALRIIKDSNYMTIDNSILENMRIDLAELLHFVGRGDEGRELLEECLLINERFKGKNHPSMATHLINLAASYSRSKNYVEAERLLRTCLNIMEVSVGSEGQSITFPMLNLAVTLSQLNRDEEAEQIALKVLRIREKAFGEDSLPVGEALDCLVSIQARLGRDDGEILGLLKRVMMIQEKEFGPSAQELIVTLQKIIHFLEKLEMKDDKFKFRRRLALLRERYKQSLSY”, the protein production result is “failed”.

In the case of “MVGINTDTENISELLKTYWSIQRISAGYADQNAASLGLTIQQLAMINVIYSTPGISVADLTKRLIITGSSAAANVDGLISLGLVVKLNKTIPNDSMDLTLKLSKKGEDLSKRSTANAFMYKAMMKVFENLTENEIEELIRLNKKVETLLKKSK”, the protein production entry is listed as “not failed”.

“MVGLADVAVLYSGGKDSNYALYWALKSGLRVRYLVSMVSENEESYMYHTPNVELTSLQARALGIPIIKGFTKGEKEKEVEDLKNVLEGLKVDGIVAGALASRYQKERIENVARELGLKVYTPAWEKDPYQYMLEIIKLGFKVVFVAVSAYGLNESWLGRELNYKNLEELKKLSEKYGIHIAGEGGEFETFVLDMPFFKAKIVIDDAEKFWDGLSGKFIIKRAHLEWK”: the protein production result is “not failed”.

For “MVGQREPAPVEEVKPAPEQPAEPQQPVPTVPSVPTIPQQPGPIEHEDQTAPPAPHIRHYDWNGAMQPMVSKMLGADGVTAGSVLLVDSVNNRTNGSLNAAEATETLRNALANNGKFTLVSAQQLSMAKQQLGLSPQDSLGTRSKAIGIARNVGAHYVLYSSASGNVNAPTLQMQLMLVQTGEIIWSGKGAVSQQLEHHHHHH”, the protein production result is on record as “not failed”.

Regarding “MVHCADQGMARAARDLAGALIASSAVLYNQFDAWSRSHAAALEAVRRGGDTEGEAWLLTGLGQLRYEQDKFEESYAYFADALRLFDERGDVPRGAALSLAGMGSARREQARFAEALQLLSSALERYEQTDDVGARARVLYGIGYVHREQGRGAQAWEALSGALGLYRTASDRHGEALTLRSLALCRRADGAWADAERLLHEALRIFVGLQDTFGVMYTEQSLAKVELRRGHLEKARERLGRCLEVARERQDRFGEALVLRTLGEWCLAAGETERAREPLERALAAWEALDLPLWGARTAWDLAEVSASRATNRRRGQPARRRWRPSARWTAGRRGSARTKACRTR”, the protein production result is “failed”.

As for “MVHDSALPFDALPMPPQGREGFEECPYLDSQWVADTNGQRMTGQGVDTRFDTPACVFWSYPEAPQATVMVRHMPSEEEAIRVVDWAAPIDTTEPAEEPDGWSGGRAGHEEGAVYAVQKGPVAVVVWSNQQQSLKAELMAKEAIARLGL”, the protein production result is reported as “not failed”.

With “MVHDTFMKMPEVRRRRQPTHVLVAGGNQGLGNMTAFLRAARTSTLFRYSVLCGANKQLYHEIASWQLPHIRPLPYINSPEEMNQLYDEADAVITKPGGVTISELLHKRIPIFTIDCLPGQERINWQYLRRNGLIYHLAEPGNGERKMIRLLTDDVEKNRFFRRVSDYFAGVEKTGLEHHHHHH”, the protein production entry was “failed”.

For the sequence “MVILEQTHLVKNKAVDNKKSMKYSIFQQALTIAVILLISKIIESFMPIPMPASVIGLVLLFIALCTGIVKLGQVETVGTALTNNIGFLFVPAGISVINSLPILKQSPILIILLIIISTLLLLICTGFSSQLLVTKSLFPSKEKNEETSHIGG”, the protein production result is on record as “failed”.

Turning to “MVINSTVWQCEATGKENLTYEEAVKSERAARKKMEQFKQSLRAPVLLVVEHAQQSAVNTLNMIVAKFLRKRYFIGEEVSVQAKKNATYTVLGVKLDKNMPEPLNGIYEDTDNLVYRLRPNKGDPSAELDLPFRQLRRSRMEFNLENLSMFIKSNVSRVDGLLRPKPEA”, the protein production entry is reported as “failed”.

“MVKDKQKAIFSENLNSYIAKSEKTQLEIAKSIGVSPQTFNTWCKGIAIPRMGKVQALADYFNINKSDLIEDKKLNIDTVPIESGYTIPVLGRVAAGYGKEAVEEVIGQIEISPSMAAKGDYFGLLIKGDSMIPTLYDGDTVIVERTDDAESGDLVIALVNGSDATCKRLQKYAEGIALIPQNPVYEPMRFTESEIDTTPVKILGKVVEMRRKFLEHHHHHH”: the protein production result is reported as “not failed”.

As to “MVKLELLKQSDASALLKFELNNKEWFESFIEARDDDFFDDNGIKEHVNFCLAEYKKGLLYPTLIKDEDGQILGRANLYNIDRVKNSGSIGYRIGEEFTSQGLATLATKELLEIGKNRYELSSINAVASTDNAASQKVLIKNGFKEVGFKPEFAFVDGEIIDCYEYRCLIQQLTPVM”, the protein production result is listed as “failed”.

Take “MVKMIEQLKRSFAVAKKDMLIFYLKGPVIIMGLIFPFFLFLAFFIGRNLEKAQLFTALISMTAFFTSTAVGPTIIPWECRGRTFERLITAPVSLTTVLLGDLQASFYFGTAITFIISTVAIFILSIRPNLQIFLVATILAILTFSAMTILMSSYPPTDVPADIMMLSSLVKFSLLFISGIFVPLKDLPKYARWISYASPLTYYVDALRNSLGDGCLPLWIDFGMLALFGILFFLSGVAIHKKVLERRFT”: the protein production entry is “failed”.

Take “MVKMKKVEQLSSHLYLIDDFDLQHNERTGTYVLLGDDITLIETCAAPSLPYILDGLQQLHIDLNEVKNIIVTHVHLDHAGAAGLMMEKCPNATLYVHSRGARHMIDPTKLILGAKAVYKEDFDKLFDPILPIEEERVHIVQHGDTLQIAEDRILTFYDTPGHAKHHISIHDSLTNGIFTGDTIGIYYRELADLGVELYLPSTSPSQFQPDAMIASKNHIQSMNVDTIYFGHYGASSNVTEVYKQLEHWLPIFVHTGKEVFEKYNDFDEATKALQTILMDKISSHLIKLNVPSDHSVYNILHLDIEISAMGIIDYFTKLEKTNPPIS”: the protein production entry is “failed”.

As to “MVKNEVLMRVAELLKHRAENLVKHTEFKQWMSPSVREYWDDILNKTQSRPLFGWVKDLHLPANEDTPIPEPIELKPEAQALYDELQTQVGEVIHTGDWLLVDQERINQFGAVTEDMQWIHTNPDRAALESPFKTTIAHGFLTLALLPKLTDSVDEEKTLFPTAKMVVNIGLNSVRFPYPVKAGNRVRAVSTLSKVTPIKKGLEIEREIKVEIEGVRRPGCVVVSVIQLHF”, the protein production result was “failed”.

Regarding “MVKRTSHKQASCPVARPLDVIGDGWSMLIVRDAFEGLTRFGEFQKSLGLAKNILAARLRNLVEHGVMVAVPAESGSHQEYRLTDKGRALFPLLVAIRQWGEDYFFAPDESHVRLVERDSGQPVPRLQVRAGDGSPLAAEDTRVSRD”, the protein production entry is recorded as “not failed”.

“MVKTAVLMATYNGEIFISEQLDSIRQQTLKPDYVLLRDDCSTDETVNVVNNYIAKHELEGWKIVKNDKNLGWRLNFRQLLIDVLAYEVDYVFFSDQDDIWYLDKNERQFAIMSDKPQIEVLSADVDIKTMSTEASVPHFLTFSSSDRISQYPKVYDYQTFRPGWTIAMKRDFAQAIADNWTFGANISHDNLIETTASIIGNGYNLNESVGVHIRYGGNASGNSKFVLNWKSPKTQHITGLKTFVDFYETMQKVVNKYQNDVALNQRLAFEKERLEASKLSLIHNSAFVIKNWRLYNSNSGRMRDLLFAFKKLEHHHHHH”: the protein production entry is given as “not failed”.
